Target: Stl_(SaPIbov1) protein (staphylococcal repressor) (Staphylococcus aureus)
Assay: ITC

Binder | Kd [nM]
Escherichia coli dUTPase Q93R mutant (enzyme) not shown | 97.2
Escherichia coli dUTPase Q93H mutant (enzyme) not shown | 60.8
